{
  "source": "the supplement of paper PMC9170038",
  "system": "MS2 coat protein",
  "experiment": "apparent KD of MS2 coat protein; higher = weaker reporter binding",
  "details": "Eterna round: R107",
  "summary_of_the_method": "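In 100 mM Tris-HCl pH 7.5 with 80 mM KCl and 4 mM MgCl2, and without or with constant ligand, SNAP-549-labelled MS2 coat protein was titrated in twofold steps from 0.7 or 1.5 nM to 3 µM. Per-step times went from 0.8–1.5 h down to 10–20 min. The RNA switches were transcribed on-chip from Illumina sequencing clusters, and apparent KD is the per-design median of normalised cluster binding-curve fits.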",
  "key": {"[1]": {"details": "input ligand: theophylline 20 uM"}, "[2]": {"details": "input ligand: theophylline 2 mM"}, "[3]": {"details": "input ligand: tryptophan 2.4 mM"}},
  "data": [
    {"sequence": "ACGUAAUGCAGAAGGAGCGUCAACCUCUUACAUGAGGAUCACCCAUGUUACAUGGUUGUAUGACAGGUAGGUCGCUGAAGUACGA [JR_ExcArginiB_Sub001]", "values": [
      {"measurement": "apparent KD of MS2 coat protein", "setting": "input ligand: arginine 13.2 mM", "value": 31.9, "unit": "nM"},
      {"measurement": "apparent KD of MS2 coat protein", "setting": "input ligand: none", "value": 34.7, "unit": "nM"},
      {"measurement": "apparent KD of MS2 coat protein", "setting": "[1]", "value": 50.5, "unit": "nM"},
      {"measurement": "apparent KD of MS2 coat protein", "setting": "[2]", "value": 50.4, "unit": "nM"},
      {"measurement": "apparent KD of MS2 coat protein", "setting": "[3]", "value": 36.6, "unit": "nM"}
    ]},
    {"sequence": "AAAAUAAAUAAAACGGGUAACAUGAAGGAUACCAGCCAGGAAACUGGCCCUUGGCAGCCUCUACAUGAGGAUCACCCAUGUCCCG [Mat - Same State Theophlline A - Mod of Eli - D14]", "values": [
      {"measurement": "apparent KD of MS2 coat protein", "setting": "input ligand: arginine 13.2 mM", "value": 169, "unit": "nM"},
      {"measurement": "apparent KD of MS2 coat protein", "setting": "[1]", "value": 142, "unit": "nM"},
      {"measurement": "apparent KD of MS2 coat protein", "setting": "[3]", "value": 454, "unit": "nM"}
    ]},
    {"sequence": "CAUACUUUAGUAUGUAAUGUGGACAGUGAUACCAGAUACGAAAGUAUCCCUUGGCAGCACAACAUGAGGAUCACCCAUGUAUUUU [Theophylline A 3]", "values": [
      {"measurement": "apparent KD of MS2 coat protein", "setting": "input ligand: arginine 13.2 mM", "value": 20.9, "unit": "nM"},
      {"measurement": "apparent KD of MS2 coat protein", "setting": "[1]", "value": 20, "unit": "nM"},
      {"measurement": "apparent KD of MS2 coat protein", "setting": "[3]", "value": 19.2, "unit": "nM"}
    ]},
    {"sequence": "AUCAUAAUAGACUCGUUAGAUUAUAUGGAACGAGGACCGGUACGGCCGCCACUCGUGAUGUACAUGAGGAUCACCCAUGUUAGCA [JR_SSTryptoA_Sub002]", "values": [
      {"measurement": "apparent KD of MS2 coat protein", "setting": "input ligand: arginine 13.2 mM", "value": 13.1, "unit": "nM"},
      {"measurement": "apparent KD of MS2 coat protein", "setting": "[1]", "value": 17.4, "unit": "nM"},
      {"measurement": "apparent KD of MS2 coat protein", "setting": "[2]", "value": 17.3, "unit": "nM"}
    ]},
    {"sequence": "CUCAUCCACGCGGCCGCCACUAUAUUGUGGUGUGAAUGUGACGUAUUACAAGAGGAUCACCCUUGUAGGACCGGGCGUGGAUGAG [Tryp B Ex Mod1]", "values": [
      {"measurement": "apparent KD of MS2 coat protein", "setting": "input ligand: arginine 13.2 mM", "value": 28.5, "unit": "nM"},
      {"measurement": "apparent KD of MS2 coat protein", "setting": "input ligand: none", "value": 20.3, "unit": "nM"},
      {"measurement": "apparent KD of MS2 coat protein", "setting": "[1]", "value": 28.4, "unit": "nM"},
      {"measurement": "apparent KD of MS2 coat protein", "setting": "[2]", "value": 34.2, "unit": "nM"},
      {"measurement": "apparent KD of MS2 coat protein", "setting": "[3]", "value": 147, "unit": "nM"}
    ]},
    {"sequence": "CUAUGGAUAAGAAGGAGCGUCGAAAAUGGGUAAACAUGAGGAUCACCCAUGUAAAGGGAACGACAGGUAGGUCGCUUAUUUAUAG [AstromonsSSArgB#7]", "values": [
      {"measurement": "apparent KD of MS2 coat protein", "setting": "input ligand: arginine 13.2 mM", "value": 107, "unit": "nM"},
      {"measurement": "apparent KD of MS2 coat protein", "setting": "input ligand: none", "value": 179, "unit": "nM"},
      {"measurement": "apparent KD of MS2 coat protein", "setting": "[1]", "value": 190, "unit": "nM"},
      {"measurement": "apparent KD of MS2 coat protein", "setting": "[2]", "value": 213, "unit": "nM"},
      {"measurement": "apparent KD of MS2 coat protein", "setting": "[3]", "value": 192, "unit": "nM"}
    ]},
    {"sequence": "AGCUCGCAUCCUCUAGCGUCAAAGACGCGUCGAGGACCGGUACGGCCGCCACUCGACUUGAGGAUCACCCAAGUCUAAGCGAGCA [TrypAX 11 #SwitchBubble #AlternativeMS2 #MS2Late #CuTurnoff]", "values": [
      {"measurement": "apparent KD of MS2 coat protein", "setting": "input ligand: arginine 13.2 mM", "value": 54.8, "unit": "nM"},
      {"measurement": "apparent KD of MS2 coat protein", "setting": "input ligand: none", "value": 92.6, "unit": "nM"},
      {"measurement": "apparent KD of MS2 coat protein", "setting": "[1]", "value": 91.1, "unit": "nM"},
      {"measurement": "apparent KD of MS2 coat protein", "setting": "[2]", "value": 215, "unit": "nM"},
      {"measurement": "apparent KD of MS2 coat protein", "setting": "[3]", "value": 488, "unit": "nM"}
    ]},
    {"sequence": "UCCUCCUCCGCAAGGAGGAGGAGUUGCGAUACCAGCACGGUAACGUGCCCUUGGCAGCGCACAUGAGGAUCACCCAUGUGGUGUU [#1 Exclusion - Theophylline A Attempt #12 (HarryS)]", "values": [
      {"measurement": "apparent KD of MS2 coat protein", "setting": "input ligand: arginine 13.2 mM", "value": 52.7, "unit": "nM"},
      {"measurement": "apparent KD of MS2 coat protein", "setting": "input ligand: none", "value": 228, "unit": "nM"},
      {"measurement": "apparent KD of MS2 coat protein", "setting": "[1]", "value": 455, "unit": "nM"},
      {"measurement": "apparent KD of MS2 coat protein", "setting": "[2]", "value": 379, "unit": "nM"},
      {"measurement": "apparent KD of MS2 coat protein", "setting": "[3]", "value": 231, "unit": "nM"}
    ]},
    {"sequence": "GUUGGAUUUUCGGCCGCCACUGAGAGAGUCAUGUGAACAUGAGGAUCACCCAUGUAAUAUAUAUACAGGACCGGGAGGGUUGUAA [4.L]", "values": [
      {"measurement": "apparent KD of MS2 coat protein", "setting": "input ligand: arginine 13.2 mM", "value": 35, "unit": "nM"},
      {"measurement": "apparent KD of MS2 coat protein", "setting": "input ligand: none", "value": 14.6, "unit": "nM"},
      {"measurement": "apparent KD of MS2 coat protein", "setting": "[1]", "value": 26.3, "unit": "nM"},
      {"measurement": "apparent KD of MS2 coat protein", "setting": "[2]", "value": 18.6, "unit": "nM"},
      {"measurement": "apparent KD of MS2 coat protein", "setting": "[3]", "value": 13.5, "unit": "nM"}
    ]},
    {"sequence": "GCAUCCUAGUCGGCCGCCACUGGUACGAACACCUUCACCCGUGUGCACAUGAGGAUCACCCAUGUCAGGACCGGGACUAGGAUGC [SSTryp B #22]", "values": [
      {"measurement": "apparent KD of MS2 coat protein", "setting": "input ligand: arginine 13.2 mM", "value": 9.48, "unit": "nM"},
      {"measurement": "apparent KD of MS2 coat protein", "setting": "[1]", "value": 10.9, "unit": "nM"},
      {"measurement": "apparent KD of MS2 coat protein", "setting": "[2]", "value": 8.54, "unit": "nM"}
    ]},
    {"sequence": "AAUAUAUAUCACGAACUGUGGUGUAUGUUGCGAGGACCGGUACGGCCGCCACUCGGCCGGUGGUACAUGAGGAUCACCCAUGUUG [XTryp A #9]", "values": [
      {"measurement": "apparent KD of MS2 coat protein", "setting": "input ligand: arginine 13.2 mM", "value": 35.3, "unit": "nM"},
      {"measurement": "apparent KD of MS2 coat protein", "setting": "input ligand: none", "value": 25.3, "unit": "nM"},
      {"measurement": "apparent KD of MS2 coat protein", "setting": "[1]", "value": 48.7, "unit": "nM"},
      {"measurement": "apparent KD of MS2 coat protein", "setting": "[2]", "value": 40.1, "unit": "nM"},
      {"measurement": "apparent KD of MS2 coat protein", "setting": "[3]", "value": 28.2, "unit": "nM"}
    ]},
    {"sequence": "GGCAGUCAUAGGAGGGCAAAUAUACUCGAAGGAGCGUCAUAGUAGGCAGGUAGGUCGCGAGACAUGAGGAUCACCCAUGUAGAGA [wwzmullin]", "values": [
      {"measurement": "apparent KD of MS2 coat protein", "setting": "input ligand: arginine 13.2 mM", "value": 20.2, "unit": "nM"},
      {"measurement": "apparent KD of MS2 coat protein", "setting": "input ligand: none", "value": 66.9, "unit": "nM"},
      {"measurement": "apparent KD of MS2 coat protein", "setting": "[1]", "value": 106, "unit": "nM"},
      {"measurement": "apparent KD of MS2 coat protein", "setting": "[2]", "value": 125, "unit": "nM"},
      {"measurement": "apparent KD of MS2 coat protein", "setting": "[3]", "value": 90.5, "unit": "nM"}
    ]},
    {"sequence": "GUACAUGAGGAUCACCCAUGUAUAGUUGAAGGAGCGACCGGUGGGUCAGGUAGGUCGCAGCGCAUGGCGUCCACGCGUGUAUGCC [#1 Exclusion - Arginine A Attempt #29 (Inspired by Pi)]", "values": [
      {"measurement": "apparent KD of MS2 coat protein", "setting": "input ligand: arginine 13.2 mM", "value": 10.3, "unit": "nM"},
      {"measurement": "apparent KD of MS2 coat protein", "setting": "input ligand: none", "value": 12.3, "unit": "nM"},
      {"measurement": "apparent KD of MS2 coat protein", "setting": "[1]", "value": 17.1, "unit": "nM"},
      {"measurement": "apparent KD of MS2 coat protein", "setting": "[2]", "value": 11.1, "unit": "nM"},
      {"measurement": "apparent KD of MS2 coat protein", "setting": "[3]", "value": 11.9, "unit": "nM"}
    ]},
    {"sequence": "UGUAUGGACUGAAGGAGCGCCUCAAAACAUGAGGAUCACCCAUGUGGACAAUAAGUCCUUGGGCAGGUAGGUCGCAGUCCAUACU [ArgBX 6 #StaticStem #MS2Late]", "values": [
      {"measurement": "apparent KD of MS2 coat protein", "setting": "input ligand: arginine 13.2 mM", "value": 81.4, "unit": "nM"},
      {"measurement": "apparent KD of MS2 coat protein", "setting": "input ligand: none", "value": 50, "unit": "nM"},
      {"measurement": "apparent KD of MS2 coat protein", "setting": "[1]", "value": 84.6, "unit": "nM"},
      {"measurement": "apparent KD of MS2 coat protein", "setting": "[2]", "value": 85.3, "unit": "nM"},
      {"measurement": "apparent KD of MS2 coat protein", "setting": "[3]", "value": 60.9, "unit": "nM"}
    ]},
    {"sequence": "AGUUAUUUCCGAAGGAGCGUUAUACAUGAGGAUCACCCAUGUACAUGAGGUUCAACAUGAAAACAGGUAGGUCGCGGAUUUUGUC [Exclusion Arginine B4]", "values": [
      {"measurement": "apparent KD of MS2 coat protein", "setting": "input ligand: arginine 13.2 mM", "value": 15.6, "unit": "nM"},
      {"measurement": "apparent KD of MS2 coat protein", "setting": "input ligand: none", "value": 19.2, "unit": "nM"},
      {"measurement": "apparent KD of MS2 coat protein", "setting": "[1]", "value": 27.6, "unit": "nM"},
      {"measurement": "apparent KD of MS2 coat protein", "setting": "[2]", "value": 29, "unit": "nM"},
      {"measurement": "apparent KD of MS2 coat protein", "setting": "[3]", "value": 14.2, "unit": "nM"}
    ]},
    {"sequence": "ACAUUGCGCUCGGCCGCCACUGCCUUAUGAUUAUAAGGAUUAAUGAACAUGAGGAUCACCCAUGUCAGGACCGGGAGCGAACCAU [SSTryp B #6]", "values": [
      {"measurement": "apparent KD of MS2 coat protein", "setting": "input ligand: arginine 13.2 mM", "value": 11.4, "unit": "nM"},
      {"measurement": "apparent KD of MS2 coat protein", "setting": "[1]", "value": 16, "unit": "nM"},
      {"measurement": "apparent KD of MS2 coat protein", "setting": "[2]", "value": 14.1, "unit": "nM"}
    ]}
  ]
}
